The values below come from patent US20190367631A1 (Regeneron, published 2019).

The chains are these.
B1: H1H27732P-N297Q (antibody, V domains shown)
VH: QLQLQESGPGLVKPSETLSLTCTVSGGSISSSTYYWGWIRQPPGKGLEWIGSFYYSGSTYYNPSLKSRVTISVGTSKNQFSLKLSSVTAADTAVYFCARGGLLGRPFVIWGQGTMVTVSS
VL: DIQMTQSPSSLSASVGDRVTITCRASQGIRNDLGWYQQKPGKAPKRLIYAASSLQSGVPSRFSGSGSGTEFTLTISSLQPEDFATYYCLQHNSYPLTFGGGTKVEIKR
notes: Human IgG1 Fc with N297Q
B2: H1H27762P2-N297Q (antibody, V domains shown)
VH: QVQLVQSGAEVKKPGSSVKVSCKASGGTFSRYDISWVRQAPGQGLEWMGGIIPIFGTSNYAQKFQGRVTITTDESTSTVYMELSSLRSEDTAVYYCARGGRYGWFDPWGQGTLVTVSS
VL: not shown
notes: Human IgG1 Fc with N297Q; also called H1H27762P-N297Q
B3: H1H27760P2-N297Q (antibody, V domains shown)
VH: EVQLVESGGGLVQPGRSLRLSCAASGFTFDAYAMHWVRQAPGKGLEWVSGISWNSGSIGYADSVKGRFTISRDNAKNSLYLQMNSLREEDTALYYCAKDKILELYYYGMDVWGQGTTVTVSS
VL: not shown
notes: Human IgG1 Fc with N297Q; also called H1H27760P-N297Q
B4: H1H27736P-N297Q (antibody, V domains shown)
VH: EVQLVESGGGLVQPGGSLRLSCAASGFTFSSYAMSWVRQAPGKGLEWVSSISGSGDSTFYTDSVKGRFTISRDISKNTLYLQMNSLRAEDTAVYYCAKDRLLWFGDLISPFHYWGQGTLVTVSS
VL: EIVLTQSPGTLSLSPGERATLSCRASQSVSNIYLAWYQQKPAQAPRLLIYGASSRATGIPDRFSVSGSGTDFTLTISRLEPEDFAVYYCQQYGSSPRTFGQGTKVEIKR
notes: Human IgG1 Fc with N297Q
B5: H1H27731P-N297Q (antibody, V domains shown)
VH: QLQLQESGPGLVKPSETLSLTCTVSGGSISRISYYWGWIRQPPGKGLEWIGSIYDSGSTYYNPSLKSRVTISIDTSKNQFSLKLSSVTAADTAVYYCVRYSSSSAFAFDYWGQGTLVTVSS
VL: DIQMTQSPSSVSASVGDRVTITCRASQGISSWLAWYQQKPGKAPKLLIYAASSLQSGVPSRFSGSGSGTDFTLTISSLQPEDFATYYCQQANSFPFTFGPGTKVDIKR
notes: Human IgG1 Fc with N297Q
B6: H1H27747P-N297Q (antibody, V domains shown)
VH: QVQLVESGGAVVQPGRSLRLSCAASGFTFSYYGMHWVRQAPGKGLEWVAVISYDGSKKYYADSVKGRFTISRDNSKNTLYLQMNSLRAEDTAVYYCAKDLTVDFYYGMDVWGQGTTVTVSS
VL: B5 VL with A51T, V58A, Y87F, F96Y, P100Q, V104L, D105E
notes: Human IgG1 Fc with N297Q
B7: H1H27754P-N297Q (antibody, V domains shown)
VH: EVQLVESGGGLVQPGGSLRLSCAASGFTFRTYAMTWVRQAPGKGLDWVSAITGDGGNTYYADSVKGRFTISRDNSKNTLYLQMNSLRAEDTAIYYCAKDQRFSFALYYFDYWGQGTLVTVSS
VL: B5 VL with K42N, S52F, S93N, F96W, P100Q, D105E
notes: Human IgG1 Fc with N297Q
B8: H1H27739P-N297Q (antibody, V domains shown)
VH: EVQLVESGGGLVQPGGSLRLSCTASGFTFSSYAMSWVRQAPGKGLEWVSAISGTGSSTYFTDSVKGRFAISRDNSKNTLYLQMNSLRAEDTAVYYCAKDGEWLSTVTLFDYWGQGTLVTVSS
VL: EIVMTQSPATLSVSPGERATLSCRASQSVSSNLAWYQQKPGQAPRLLIYGASTRATGIPARFSGSGSGTDFTLTISSLQSEDFALYYCQQYFIWPPHPTFGPGTKVDIKR
notes: Human IgG1 Fc with N297Q
B9: H1H27756P-N297Q (antibody, V domains shown)
VH: QVQLVESGGGVVQPGRSLRLSCAASGFTFSNYDMHWVRQAPGKGLEWMAVISYDGINKYYADSVKGRFTISRDNSKNTLYLQMNSLRAEDTAVYYCAKGTYSWYFDLWGRGTLVTVSS
VL: not shown
notes: Human IgG1 Fc with N297Q
B10: H1H27729P-N297Q (antibody, V domains shown)
VH: QVQLVESGGGLVKPGGSLRLSCAASGFIFSDYYMSWIRQAPGKGLEWVSYISSSGTTIYGDSVKGRFTMSRDNAKNSLYLQMNSLRAEDTAVYYCARNYALFDYWGQGTLVTVSS
VL: DIQMTQSPSSLSASVGDRVTITCQASQDISKYLNWYQQKPGKAPKLLIYYTSNLETGVPSRFSGSGSGTDFTFTISSLQPEDIATYYCHQSDYLPFTFGPGTKVDIKR
notes: Human IgG1 Fc with N297Q
B11: H1H27761P2-N297Q (antibody, V domains shown)
VH: EVQLVESGGDLVQPGGSLRLSCSASGFTFNIYAMSWVRQAPGKGLEWVSGISGSGGSTYYADSVKGRFTISRDNSKNTLYFQMNSLRVEDTAVYYCAKKISSSSYYYYAMDVWGQGTTVTVSS
VL: not shown
notes: Human IgG1 Fc with N297Q; also called H1H27761P-N297Q
B12: H1H27766P2-N297Q (antibody, V domains shown)
VH: EVQLVESGGGLVQPGGSLRLSCAASGFTFSSFAMSWVRQAPGKELEWVSSISGRGGSTYYADSVRGRFTISRDNSKITLYLQMNSLRAEDTAVYYCAKDIVFRYTSSAYWYFDLWGRGTLVTVSS
VL: not shown
notes: Human IgG1 Fc with N297Q; also called H1H27766P-N297Q
B13: H1H27749P-N297Q (antibody, V domains shown)
VH: QVQLQESGPGLVKPSETLSLTCTVSDGSISSYYWSWIRQPPGRGLEWIGFIYYSGSTSYNPSLKSRVTISVDTSMSQFSLKLRSVTAADTAVYYCARGSPFDYWGPGTLVTVSS
VL: EIVLTQSPGTLSLSPGERATLSCRASQSVSSSYLAWYQQRPGQAPSLLISGASRRATGIPDRFSGSGSGTDFTLTIRRLEPEDFAMYYCQQYGSSPPTFGGGTKVEIKR
notes: Human IgG1 Fc with N297Q
B14: H1H27759P2-N297Q (antibody, human IgG1, V domains shown)
VH: EVQLVESGGGFVQPGGSLRLSCAASGFTFSSYAMSWVRQAPGKGLEWVSAISGTGSNTYYADSVKGRFTISRDNSKNTLYLQMNSLRAEDTAVYYCAKDRVTTVTYYFDYWGQGTLVTVSS
VL: not shown
notes: Human IgG1 Fc with N297Q; also called H1H27759P-N297Q
B15: H1H27734P-N297Q (antibody, V domains shown)
VH: EVQLVESRGGLVQPGGSLRLSCAASGFTFSSYAMSWVRQAPGKGLEWVSAISGSGGSTFYADSVKGRFTISRDNSKNTVYLQMNSLRAEDTAVYYCAKALVLRFLEWLGDYWGQGTLVTVSS
VL: DIQMTQSPSTLSASVGDRVTITCRASQSISSWLAWFQQKPGKAPKLLIYKASSLESGVPSRFSGSGSGTEFTLTISSLQPDDFATYYCQQYKSYWTFGQGTKVEIKR
notes: Human IgG1 Fc with N297Q
B16: H1H27751P-N297Q (antibody, V domains shown)
VH: EVQLVESGGGLVQPGGSLRLSCAASGFTFSNYAMHWVRQAPGKGLEYVSAISSNGGSTYYADSVKGRITISRDNSKNTLYLQMGSLRAEDMAVYYCARGRPYYYYFGMDVWGQGTTVTVSS
VL: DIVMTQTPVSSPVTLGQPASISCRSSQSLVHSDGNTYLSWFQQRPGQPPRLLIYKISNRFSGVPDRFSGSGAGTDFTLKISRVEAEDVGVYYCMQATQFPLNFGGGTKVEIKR
notes: Human IgG1 Fc with N297Q

Residue numbers refer to the chain shown, from its start. In names and notes the source's numbering stands.

The target of one assay is T1, human MSR1 extracellular domain expressed with a N-terminal nonahistidine tag (human, UniProt P21757 77-451).
T1 construct: extracellular domain; also called His9-hMSR1; His-hMSR1
T1 sequence: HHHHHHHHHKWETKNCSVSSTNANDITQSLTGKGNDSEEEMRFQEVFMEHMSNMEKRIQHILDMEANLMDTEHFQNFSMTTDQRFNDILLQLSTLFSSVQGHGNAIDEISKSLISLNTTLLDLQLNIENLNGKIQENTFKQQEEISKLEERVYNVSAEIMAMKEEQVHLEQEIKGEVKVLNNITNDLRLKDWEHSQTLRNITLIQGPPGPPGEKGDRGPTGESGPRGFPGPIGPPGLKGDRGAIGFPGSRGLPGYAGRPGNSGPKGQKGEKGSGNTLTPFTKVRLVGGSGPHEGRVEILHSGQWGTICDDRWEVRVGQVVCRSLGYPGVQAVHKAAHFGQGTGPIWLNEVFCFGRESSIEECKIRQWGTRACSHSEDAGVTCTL
The experiment in a line: competition ELISA, plate-coated His9-hMSR1; 100 nM antibody, competitor ligand Ac-LDL. Background: In an ELISA, binding on a coated surface is turned into a signal by an enzyme label.
Experimental: (§1) Buffer alone was also added to wells on each coat. […] This assay was conducted in four different assay runs.
(§2) Data analysis was performed using a sigmoidal dose-response model within Prism™ software (GraphPad).
In the case of B1, the “% Blocking” value is -61%.
On the same count and under the same terms, then B2, with -58%.
B3: the “% Blocking” value is -43%.
Same read-out and setting: the same measure for B4: -31%.
The same measure, in the same setting: the same measure for B5: -41%.
The same measure, in the same setting: then B6, with -44%; and B7, with -42%.
Turning to B8, the “% Blocking” value is -47%.
Consider B9, for which the “% Blocking” value is -54%.
On the same count and under the same terms, then B10, with 8%.
Same read-out and setting: then B11, with -36%; and B12, with 52%.
The same measure, in the same setting: the same measure for B13: -51%; for B14: -45%.
Regarding B15, the “% Blocking” value was -38%.
The same measure, in the same setting: the same measure for B16: -51%.

In another assay the target is T1, human MSR1 extracellular domain …. In words: competition ELISA, plate-coated His9-hMSR1; 1 µM antibody, competitor ligand 10 nM Ox-LDL.
Experimental: as §1, §2
Take B1: the “% Blocking” value is -60%.
Still for that read-out and setting: then B2, with -65%; and B3, with -47%; and B4, with 3%.
On the same count and under the same terms, then B5, with -1%; and B6, with -31%.
On the same count and under the same terms, the same measure for B7: -44%; for B8: -41%.
With B9, the “% Blocking” value was -45%.
As to B10, the “% Blocking” value came to 36%.
Still for that read-out and setting: then B11, with -21%; and B12, with 54%; and B13, with -21%.
The same measure, in the same setting: then B14, with -62%; and B15, with -15%.
On the same count and under the same terms, then B16, with -31%.

For a further assay the target is unchanged. In words: competition ELISA, plate-coated His9-hMSR1; 300 nM antibody, competitor ligand biot-AGE-BSA.
Experimental: as §1, §2
As to B1, the “% Blocking” value is -9%.
Still for that read-out and setting: the same measure for B2: -16%; for B3: -4%; for B4: -3%.
The same measure, in the same setting: the same measure for B5: 4%.
Same read-out and setting: then B6, with -2%.
In the case of B7, the “% Blocking” value was -9%.
The same measure, in the same setting: then B8, with -9%.
On the same count and under the same terms, then B9, with -8%; and B10, with 15%; and B11, with -4%.
Same read-out and setting: the same measure for B12: 27%; for B13: -1%; for B14: -19%.
Turning to B15, the “% Blocking” value was -4%.
Still for that read-out and setting: the same measure for B16: -11%.
